# T1: mouse FcRn (mouse, UniProt Q61559 22-297; P01887 21-119)
# T1 construct: also called mFcRn
# T1 sequence (looked up) 1: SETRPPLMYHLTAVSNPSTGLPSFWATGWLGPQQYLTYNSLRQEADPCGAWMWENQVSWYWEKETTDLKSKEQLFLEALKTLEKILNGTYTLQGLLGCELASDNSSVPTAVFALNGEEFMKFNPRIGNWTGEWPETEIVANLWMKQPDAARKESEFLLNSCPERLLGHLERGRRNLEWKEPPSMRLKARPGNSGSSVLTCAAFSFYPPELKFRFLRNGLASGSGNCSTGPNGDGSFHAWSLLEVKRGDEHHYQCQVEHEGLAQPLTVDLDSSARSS
# T1 sequence (looked up) 2: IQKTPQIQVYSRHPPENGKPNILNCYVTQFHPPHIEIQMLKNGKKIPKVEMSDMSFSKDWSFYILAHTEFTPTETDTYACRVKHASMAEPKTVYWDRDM
# T2: mouse FcγRI (mouse, UniProt P26151 25-297)
# T2 sequence (looked up): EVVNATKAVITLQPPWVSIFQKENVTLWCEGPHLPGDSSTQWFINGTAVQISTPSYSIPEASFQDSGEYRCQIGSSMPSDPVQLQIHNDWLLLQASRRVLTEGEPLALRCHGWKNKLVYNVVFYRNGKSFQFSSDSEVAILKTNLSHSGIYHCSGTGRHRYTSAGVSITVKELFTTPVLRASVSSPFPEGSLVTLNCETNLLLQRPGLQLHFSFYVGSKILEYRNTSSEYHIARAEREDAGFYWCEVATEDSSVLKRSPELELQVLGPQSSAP
# B1: HD37 single chain IgG2a (mouse, anti-hCD19) (antibody)
# chain: DILLTQTPASLAVSLGQRATISCKASQSVDYDGDSYLNWYQQIPGQPPKLLIYDASNLVSGIPPRFSGSGSGTDFTLNIHPVEKVDAATYHCQQSTEDPWTFGGGTKLEIKRADAAPTVSIFPPSSEQLTSGGASVVCFLNNFYPKDINVKWKIDGSERQNGVLNSWTDQDSKDSTYSMSSTLTLTKDEYERHNSYTCEATHKTSTSPIVKSFNRNECGGSSGSGSGSTGTSSSGTGTSAGTTGTSASTSGSGSGGGGGSGGGGSAGGTATAGASSGSGSSGSSSSGGTGTGQVQLQQSGAELVRPGSSVKISCKASGYAFSSYWMNWVKQRPGQGLEWIGQIWPGDGDTNYNGKFKGKATLTADESSSTAYMQLSSLASEDSAVYFCARRETTTVGRYYYAMDYWGQGTSVTVSSSQSFPNVFPLVSCESPLSDKNLVAMGCLARDFLPSTISFTWNYQNNTEVIQGIRTFPTLRTGGKYLATSQVLLSPKSILEGSDEYLVCKIHYGGKNRDLHVPIPSKPCPPCKCPAPNLLGGPSVFIFPPKIKDVLMISLSPIVTCVVVDVSEDDPDVQISWFVNNVEVHTAQTQTHREDYNSTLRVVSALPIQHQDWMSGKEFKCKVNNKDLPAPIERTISKPKGSVRAPQVYVLPPPEEEMTKKQVTLTCMVTDFMPEDIYVEWTNNGKTELNYKNTEPVLDSDGSYFMYSKLRVEKKNWVERNSYSCSVVHEGLHNHHTTKSFSRTPGK
# notes: also called mIgG2a control; parental IgG
# Assays:
# [1] = biological target: T1, mouse FcRn; test: pH 5.6
# [2] = biological target: T2, mouse FcγRI
# [3] = biological target: T1, mouse FcRn
binder,measurement,setting,value
B1,Kd,[1],1.06 nM
same,koff,[1],0.000123 s⁻¹
same,Kd,[2],8.63 nM
same,koff,[2],0.000451 s⁻¹
same,kon,[2],52200 M⁻¹ s⁻¹
same,kon,[3],116000 M⁻¹ s⁻¹

# From patent publication US20250002564A1 (HOSPITAL FOR SICK CHILDREN, published 2025)
